According to paper PMC9204313:

Key:
[1] = target: CEP-BSA (21:1 molar ratio) (bovine (from the name BSA)) (UniProt P02769); experiment: BLI; Octet K2; CEP-BSA or fibrinogen amine-coupled to AR2G biosensor; active αD I-domain 50-1000 nM in the mobile phase; 20 mM HEPES, 150 mM NaCl, 1 mM CaCl2, 1 mM MgCl2, 0.02% Tween-20, 0.02% BSA, pH 7.5; KD from a plot of response at equilibrium against concentration
[2] = target: Human fibrinogen (human) (UniProt P02671); experiment: as above
Chain of UniProt P02671 (P02671 36-866, chain 1 of 3): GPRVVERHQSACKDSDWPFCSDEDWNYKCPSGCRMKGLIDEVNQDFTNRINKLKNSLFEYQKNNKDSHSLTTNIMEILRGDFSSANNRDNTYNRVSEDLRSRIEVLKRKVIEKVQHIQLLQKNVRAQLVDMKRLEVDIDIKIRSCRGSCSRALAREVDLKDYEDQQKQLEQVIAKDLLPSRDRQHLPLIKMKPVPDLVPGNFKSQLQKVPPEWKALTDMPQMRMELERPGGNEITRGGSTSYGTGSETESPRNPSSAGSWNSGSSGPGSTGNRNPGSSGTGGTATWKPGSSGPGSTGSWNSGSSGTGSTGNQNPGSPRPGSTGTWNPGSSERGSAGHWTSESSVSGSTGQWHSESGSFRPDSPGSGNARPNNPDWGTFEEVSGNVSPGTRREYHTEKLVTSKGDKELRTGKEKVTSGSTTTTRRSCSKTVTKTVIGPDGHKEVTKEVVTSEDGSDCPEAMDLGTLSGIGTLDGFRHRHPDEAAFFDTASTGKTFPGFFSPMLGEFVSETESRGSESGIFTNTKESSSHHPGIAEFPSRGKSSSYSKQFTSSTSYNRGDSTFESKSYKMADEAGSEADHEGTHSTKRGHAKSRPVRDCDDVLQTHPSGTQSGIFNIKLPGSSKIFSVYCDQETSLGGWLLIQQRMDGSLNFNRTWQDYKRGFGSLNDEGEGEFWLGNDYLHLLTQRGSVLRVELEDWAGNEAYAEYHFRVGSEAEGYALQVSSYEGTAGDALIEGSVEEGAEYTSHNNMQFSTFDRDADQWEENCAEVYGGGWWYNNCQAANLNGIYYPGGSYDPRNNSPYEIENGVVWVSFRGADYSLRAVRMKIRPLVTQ
Chain of UniProt P02671 (P02675 45-491, chain 2 of 3, further chain): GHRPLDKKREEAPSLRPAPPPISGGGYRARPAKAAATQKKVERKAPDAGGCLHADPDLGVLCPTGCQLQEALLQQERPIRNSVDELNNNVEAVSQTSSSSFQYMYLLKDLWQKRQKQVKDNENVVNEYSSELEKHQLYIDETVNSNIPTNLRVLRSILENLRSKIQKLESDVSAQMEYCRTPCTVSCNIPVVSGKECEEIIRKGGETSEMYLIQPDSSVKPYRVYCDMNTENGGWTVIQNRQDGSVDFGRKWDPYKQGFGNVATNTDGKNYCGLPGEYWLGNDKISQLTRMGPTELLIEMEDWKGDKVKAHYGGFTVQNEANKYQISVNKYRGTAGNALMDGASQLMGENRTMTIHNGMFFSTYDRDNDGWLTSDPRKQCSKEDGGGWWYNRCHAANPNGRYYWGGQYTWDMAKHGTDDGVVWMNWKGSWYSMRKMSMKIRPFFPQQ
Chain of UniProt P02671 (P02679 27-453, chain 3 of 3, further chain): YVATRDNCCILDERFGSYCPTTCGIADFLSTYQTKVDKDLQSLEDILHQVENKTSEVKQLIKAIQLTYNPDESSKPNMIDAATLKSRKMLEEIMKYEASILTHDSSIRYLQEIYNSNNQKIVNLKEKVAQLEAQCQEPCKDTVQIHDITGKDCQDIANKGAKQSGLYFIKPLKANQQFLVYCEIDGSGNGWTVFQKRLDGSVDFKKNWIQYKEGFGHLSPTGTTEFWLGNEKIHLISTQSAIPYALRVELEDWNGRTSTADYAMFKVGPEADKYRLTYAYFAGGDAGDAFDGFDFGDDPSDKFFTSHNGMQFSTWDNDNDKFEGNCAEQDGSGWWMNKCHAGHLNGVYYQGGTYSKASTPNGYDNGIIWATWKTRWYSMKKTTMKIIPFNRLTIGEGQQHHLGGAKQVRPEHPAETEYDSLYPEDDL

Kd [1]: 100 nM
Kd [2]: 220 nM
Substance: recombinant αD I-domain in an active conformation (domain or fragment)
